These results are taken from the supplement of paper PMC12764529.

± gives the half width of the 95% confidence interval.

Data set [1] can be described thus: folding stability dG unfold from chymotrypsin proteolysis; higher = more stable. The method in brief:
(§1)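 Unfolding free energy was derived, per protease or combined, against a sequence-predicted unfolded-state K50 and a shared folded-state K50, starting from K50 inferred by Bayesian fitting of sequencing counts. Digestion with trypsin and chymotrypsin was carried out on designed mini-proteins under 80 residues without cysteine in a PA-tagged cDNA display construct. Only designs with AlphaFold2 dimer inter-PAE above 15 were kept.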

Data set [2] is described as follows: folding stability dG unfold (combined trypsin and chymotrypsin); higher = more stable. The method in brief:
as §1

Data set [3] can be described thus: folding stability dG unfold from trypsin proteolysis; higher = more stable. The method in brief: as §1

As to “SAGGMMTLKITIVDEDGNEITIEVEMSIEELEELIKELFPGKKVKVVSVEEEPVEPGLVKVTIKIEKESAGG [r13_832_TrROS_Hall]”, the “folding stability dG unfold” value in data set [1] was determined as 5.01 ± 0.16 kcal/mol; in data set [2] it was 4.96 ± 0.33 kcal/mol; in data set [3], 3.6 ± 0.12 kcal/mol.

For the sequence “SAGGMNLMIKIENNGEPITFMINSPEDAEEIASNLPELGYPIEVKKLEPQRNEDGNPMVMVEIRIKPSAGGS [r8_336_TrROS]”, the “folding stability dG unfold” value in data set [1] is 1.63 ± 0.15 kcal/mol; in data set [2], 1.21 ± 0.23 kcal/mol; in data set [3], 0.763 ± 0.14 kcal/mol.

Regarding “SAGGMPEEELTLIVRIKVYNPETGEEKEITLTITVKSEEELEKAKKLVEELEEKLKELGIKKVEIEILSAGG [r13_360_TrROS_Hall]”, the “folding stability dG unfold” value in data set [1] stood at 3.37 ± 0.097 kcal/mol; in data set [2], 3.2 ± 0.26 kcal/mol; in data set [3] it was 2.92 ± 0.25 kcal/mol.

Turning to “SAGGMPGEVVDISDVPPGATLYDPEGKSYGPVVDVRVTVGPDSVEITITFPDGTTRTITAPRDKIYILPSAG [r5_850_JUSTAS]”, the “folding stability dG unfold” value in data set [1] was determined as 1.24 ± 0.065 kcal/mol; in data set [2] it was 1.59 ± 0.14 kcal/mol; in data set [3], 1.83 ± 0.083 kcal/mol.

For the sequence “SAGGMPGIRPVLRIRARVRFRGPEREEEIEIELHPEALEAGLTAEELARLRAEELGYEVEIEEIEIESAGGS [r16_554_TrMRF]”, the “folding stability dG unfold” value in data set [1] worked out at 2.01 ± 0.068 kcal/mol; in data set [2], 1.84 ± 0.1 kcal/mol; in data set [3], 1.26 ± 0.097 kcal/mol.

For the sequence “SAGGMPKDAPTTDLTITEIVTEPDPNSDTYIARVTTRLPDGTEIVYTLPIPADTTEEEVVERAKELLSSAGG [r13_578_JUSTAS]”, the “folding stability dG unfold” value in data set [1] turned out to be 2.307 ± 0.018 kcal/mol; in data set [2], 2.12 ± 0.077 kcal/mol; in data set [3], 1.78 ± 0.035 kcal/mol.

For “SAGGMPKVPVTYTVTFTLKPDGSTLTVTETFPVPEPGKPVTKEEIKQRLLDKLPPSYTITSITITRASAGGS [r16_407_JUSTAS]”, the “folding stability dG unfold” value in data set [1] was determined as 2.21 ± 0.026 kcal/mol; in data set [2], 2.13 ± 0.051 kcal/mol; in data set [3], 1.86 ± 0.03 kcal/mol.

With “SAGGMPLEHIAEITEVRTFPDGRKEIRLLVEDPEVAEEGHPELREEMAELLRRLFEEEGLEVRVVPGESAGG [r13_243_TrMRF]”, the “folding stability dG unfold” value was found to be 0.187 ± 0.18 kcal/mol in data set [1], 0.2 ± 0.19 kcal/mol in data set [2] and 0.0715 ± 0.19 kcal/mol in data set [3].

“SAGGMPLGITITETVTPTPDGSVVVTLTVSLPPDEPLTITFPISGETVSFPPDETITLKVTVPPGLSSAGGS [r16_56_JUSTAS]”: the “folding stability dG unfold” value is 0.953 ± 0.034 kcal/mol in data set [1], 1.4 ± 0.093 kcal/mol in data set [2] and 1.7 ± 0.09 kcal/mol in data set [3].

In the case of “SAGGMPLPDEKVNITITINYTLPGGKPKTITIPATNWTVEEANEKKKKVEEELKKVPPDPVEKDGKLLSAGG [r13_330_JUSTAS]”, the figures for the “folding stability dG unfold” value in data set [1], in data set [2] and in data set [3] were -0.281 ± 0.24 kcal/mol, -0.354 ± 0.21 kcal/mol and -0.745 ± 0.19 kcal/mol, respectively.

Consider “SAGGMPLPFRITQWDPNTGKPVATFPAVYDPETGLVVITPPDGSKEVFDAPLEEIVEALPSNWTVEPSAGGS [r16_543_TrMRF]”, for which the “folding stability dG unfold” value in data set [1] is -0.0752 ± 0.48 kcal/mol; in data set [2] it was 0.083 ± 0.16 kcal/mol; in data set [3] it was 0.121 ± 0.096 kcal/mol.

Turning to “SAGGMPLRFRIEVYKTETYYDPSTGKEVTKVEPLPELEIEAPPNTPLEAILAALDLPEDYYISRIGVESAGG [r13_716_TrMRF]”, the “folding stability dG unfold” value in data set [1] came to 2.55 ± 0.026 kcal/mol; in data set [2], 2.43 ± 0.049 kcal/mol; in data set [3] it was 2.06 ± 0.065 kcal/mol.

Consider “SAGGMPPENPAVVKVLAQKQKFEDLVKELKEKGIEAKLEKIEVVPETGKVTVTIKLPDGKEIVITIESAGGS [r8_277_JUSTAS]”, for which the “folding stability dG unfold” value in data set [1] came to 1.16 ± 0.064 kcal/mol; in data set [2] it was 1.33 ± 0.21 kcal/mol; in data set [3], 1.62 ± 0.11 kcal/mol.

On to “SAGGMPPVVTEHTVELNPPASATLEDVRAAAEEVAAAIRAAAPEAGVAEVTFTVDPSRGTVTITVTRPSAGG [r13_1011_JUSTAS]”, for which the “folding stability dG unfold” value in data set [1] is -0.925 ± 0.15 kcal/mol; in data set [2], 0.442 ± 0.043 kcal/mol; in data set [3] it was 0.985 ± 0.018 kcal/mol.

Regarding “SAGGMPTYTITITSPETGELKELPPNISQTFDPNNVTYYTFTSEEEAKEAIKLIAPQNGWKVTITSSSAGGS [r8_131_JUSTAS]”, the “folding stability dG unfold” value in data set [1] is -0.14 ± 0.52 kcal/mol; in data set [2] it was 0.89 ± 0.35 kcal/mol; in data set [3], 1.37 ± 0.22 kcal/mol.

“SAGGMPVGVARVRTEAGDKVLEFTVEVPADVGAVEIRVKLKPDPLTGEPVVEEILEVRTYRAPPDVELSAGG [r13_568_TrMRF]”: the results for the “folding stability dG unfold” value in data set [1], in data set [2] and in data set [3] were 0.837 ± 0.075 kcal/mol, 0.887 ± 0.055 kcal/mol and 0.84 ± 0.047 kcal/mol, respectively.

For “SAGGMPVLEREFTIPLPDGTPLRVTVRYFPGTGRALVTLRPVGTGEPLATVPLSELPPELRAALAEESAGGS [r8_32_TrMRF]”, the “folding stability dG unfold” value in data set [1] worked out at 3.102 ± 0.026 kcal/mol; in data set [2] it was 2.9 ± 0.052 kcal/mol; in data set [3], 2.42 ± 0.063 kcal/mol.

As to “SAGGMPVPVKIEIIDDPGTLIITTPNGKPYTIPIPPNSIEEITIDPEKKVIKIKLKDGEIIIDVPDGSAGGS [r16_104_TrMRF]”, the “folding stability dG unfold” value in data set [1] stood at 1.87 ± 0.038 kcal/mol; in data set [2] it was 1.88 ± 0.11 kcal/mol; in data set [3], 1.62 ± 0.072 kcal/mol.
